From patent US20210087270A1 (INNATE PHARMA, published 2021) come the findings set out here.

The target of test [1] is T1, human KIR3DL2 (CD158k), wild type, at the cell surface (human, UniProt P43630 22-455).
T1 construct: also called WTaKIR3DL2; un-mutated wild type KIR3DL2
As to the kind of experiment: panel Free KIR3DL2 - 2B12-PE: flow cytometry on HUT78 cells after 24 h at 37°C with unlabelled 2B12; loss of free KIR3DL2 detected with 2B12-PE at 10 µg/ml, the concentration axis is in µg/ml. Here is the method: (§1) This study aimed to evaluate the dynamics of KIR3DL2 receptor expression by observing the amount of total, free and 2B12-bound KIR3DL2 after different periods of incubation with antibody 2B12. Briefly, HUT78 cells (50,000 cells/well) were incubated for 1h, 24h or 48h at 37° C. in complete medium with 2B12 (human IgG1), dose range starting from 10 μg/ml (decreasing), 1/3 serial dilution, 11 concentrations, or with isotype control (IC), dose range starting (decreasing) from 10 μg/ml, 1/3 serial dilution, 11 concentrations. Dose ranges were made in triplicate in order to perform 3 staining conditions: [0323] Bound KIR3DL2 (30 min at 4° C.): GaH IgG Fc-PE, [0324] Free KIR3DL2+total KIR3DL2 (1h at 4° C.): 2B12-PE (10 μg/ml)+mAb2-APC (non-competing anti-KIR3DL2) (10 μg/ml), [0325] Total KIR3DL2 (1h+30 min at 4° C.): 2B12 (10 μg/ml)+GaH IgG Fc-PE.
A general note: A flow cytometer gives signals particle by particle.

The target in test [2] is T1, human KIR3DL2 (CD158k), wild type, at …. The test is described as follows: flow cytometry on live HUT78 cells, 24 h at 4°C in RPMI10%, detection with anti-human-Fc PE, median of fluorescence. Here is the method: (§2) This study aimed to evaluate the impact of staining conditions on 2B12 labelling of KIR3DL2-expressing cells, gated on total cells, at 4° C. or 37° C., and with incubation times of 2 hours, 4 hours or 24 hours. Briefly, 100,000 HUT78 cells per well were incubated with a dose range of 2B12 antibody starting from 0.0005 μg/ml to 30 μg/ml (serial dilution 1/3 in complete medium). The protocol used was as follows: incubation 2H; 4H and overnight at 4° C. and 37°; staining in RPMI 10% with or without PFA fixation; 2 washes in SB (150 μl/w); addition of anti-human-Fc PE for 30 min at 4° C.; 2 washes in SB (100 μl/w); and detection using FACS CANTO II.

Test [3] has the same target. As to the kind of experiment: panel Free KIR3DL2 - 2B12-PE: flow cytometry on HUT78 cells after 48 h at 37°C with unlabelled 2B12; loss of free KIR3DL2 detected with 2B12-PE at 10 µg/ml, the concentration axis is in µg/ml. As to the method: as §1
For test [4] the target is unchanged. As to the kind of experiment: flow cytometry on live HUT78 cells, 4 h at 37°C in RPMI10%, detection with anti-human-Fc PE, median of fluorescence. Here is the method:
as §2

The target is the same in test [5]. The test is described as follows: cell-based or functional assay.
For test [6] the target is unchanged. As to the kind of experiment: flow cytometry on live HUT78 cells, 2 h at 37°C in RPMI10%, detection with anti-human-Fc PE, median of fluorescence. As to the method: as §2
For test [7] the target is unchanged. The test is described as follows: panel Bound KIR3DL2 - GaH-PE: flow cytometry on HUT78 cells after 24 h at 37°C with 2B12; bound antibody detected with goat anti-human IgG Fc-PE, the concentration axis is in µg/ml. Here is the method: as §1
Test [8] has the same target. The test is described as follows: flow cytometry on HUT78 cells after 20 h at 37°C with unlabelled antibody; loss of free KIR3DL2 detected with PE-labelled 2B12 (IPH4102-PE on the sheet) at 10 µg/ml; the box prints no unit, the concentration axis is in µg/ml. As to the method:
(§3) This study aimed to evaluate the impact of a 20 hour incubation with antibody 2B12 on cell surface KIR3DL2 level by observing the amount of bound 2B12 (human IgG1), free (non-antibody bound) cell surface KIR3DL2 polypeptide, and total cell surface KIR3DL2 polypeptide. Briefly, HUT78 (100,000 cells/well) were incubated for 20h at 37° C. with a dose range of 2B12 antibody starting from (decreasing) 8.88 μg/ml, 1/3 serial dilution, 11 concentrations. Dose ranges were made in duplicate in order to perform the following 2 staining conditions: [0317] Total KIR3DL2+bound KIR3DL2 (GaH IgG Fc-PE+mAb2-APC (a non-competing anti-KIR3LD2 mAb) (10 μg/ml) [0318] Free KIR3DL2: 2B12-PE (10 μg/ml).
(§4) Staining was performed at 4° C. in staining buffer for 1h and analyzed with a FACS Canto 11 HTS. The dark line/squares represents antibody 2B12 while the light line/circles represents isotype control. It can be seen that free KIR3DL2 receptors can be detected when incubating cells with 10 μg/ml of 2B12-PE and detecting free receptors with non-competing anti-KIR3DL2 antibody. It can be seen that 2B12-bound KIR3DL2 receptors can be detected by incubating cells with goat anti-human IgG Fc-PE secondary Ab. Both read-outs were correlated, with similar EC₅₀. […]

For test [9] the target is unchanged. The test is described as follows: flow cytometry on live HUT78 cells, 24 h at 37°C in RPMI10%, detection with anti-human-Fc PE, median of fluorescence. As to the method: as §2
Test [10] has the same target. The test is described as follows: panel Free KIR3DL2 - 2B12-PE: flow cytometry on HUT78 cells after 1 h at 37°C with unlabelled 2B12; loss of free KIR3DL2 detected with 2B12-PE at 10 µg/ml, the concentration axis is in µg/ml. As to the method: as §1
Test [11] shares this target. The test is described as follows: panel Bound KIR3DL2 - GaH-PE: flow cytometry on HUT78 cells after 48 h at 37°C with 2B12; bound antibody detected with goat anti-human IgG Fc-PE, the concentration axis is in µg/ml. As to the method: as §1
The target is the same in test [12]. As to the kind of experiment: cell-based or functional assay. The source holds these as a separate data set.
The target is the same in test [13]. The test is described as follows: flow cytometry on HUT78 cells after 20 h at 37°C; bound antibody detected with goat anti-human IgG Fc-PE (MdFI GaH-PE); the box prints no unit, the concentration axis is in µg/ml. Here is the method:
as §3, §4

Test [14] concerns the target T2, KIR3DL1 (CD158e1) (UniProt P43629 22-444, limits assumed).
T2 construct: also called closely related KIR3DL1
The test is described as follows: hybridoma screening (flow cytometry, incl. HEK-293T/KIR3DL1 Domain 0-eGFP). Here is the method:
Antibodies which bind KIR3DL2 but not closely related KIR3DL1 were generated by immunizing mice with recombinant KIR3DL2-Fc fusion protein, described in US patent publication number US-2015-0232556-A1. Supernatant (SN) of the growing hybridomas were tested by flow cytometry on Sezary Syndrome cell lines (HUT78, COU-L) and HEK-293T/KIR3DL2 Domain 0-eGFP. Potentially interesting hybridomas selected from the initial screening were cloned by limiting dilution techniques in 96-wells plates. The secondary screen involved selection of hybridomas of interest by testing supernatants of the subclones by flow cytometry on HUT78, COU-L, HEK-293T/KIR3DL1 Domain 0-eGFP and HEK-293T/KIR3DL2 Domain 0-eGFP. Positive subclones were injected into mice to produce ascitis and antibodies of interest were purified before being tested in a Biacore assay using rec KIR3DL2 chips, followed by various assays formats based on binding to human KIR3DL2-expressing cells.

For test [15], the target named is KIR3DL2 mutant having I60N and G62S substitutions (human, UniProt P43630 22-455). The test is described as follows: binding to a series of KIR3DL2 mutants.
Test [16] addresses KIR3DL2 mutant having P14S, S15A and H23S substitutions (human, UniProt P43630 22-455). The test is described as follows: binding to a series of KIR3DL2 mutants.

T1 sequence (P43630 22-455 E158D): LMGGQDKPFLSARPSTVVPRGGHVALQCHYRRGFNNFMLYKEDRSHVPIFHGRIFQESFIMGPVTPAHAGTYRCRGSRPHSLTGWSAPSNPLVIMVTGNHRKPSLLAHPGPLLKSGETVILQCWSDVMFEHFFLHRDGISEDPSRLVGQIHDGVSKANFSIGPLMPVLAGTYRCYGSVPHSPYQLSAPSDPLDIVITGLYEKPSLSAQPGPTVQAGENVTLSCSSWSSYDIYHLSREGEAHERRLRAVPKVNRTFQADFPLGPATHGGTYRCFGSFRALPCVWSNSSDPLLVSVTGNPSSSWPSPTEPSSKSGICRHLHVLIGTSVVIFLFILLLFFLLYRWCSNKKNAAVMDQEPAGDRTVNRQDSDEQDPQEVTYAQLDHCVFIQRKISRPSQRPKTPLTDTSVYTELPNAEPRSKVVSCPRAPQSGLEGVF
KIR3DL2 mutant having P14S, S15A and H23S substitutions, sequence (P43630 other isoform, or with tags, fused parts or gaps P14S S15A H23S P14S S15A H23S): as the sequence (P43630 22-455 E158D) above, with P14S, S15A, H23S counted along it
KIR3DL2 mutant having I60N and G62S substitutions, sequence (P43630 other isoform, or with tags, fused parts or gaps I60N G62S I60N G62S): as the sequence (P43630 22-455 E158D) above, with I60N, G62S counted along it
T2 sequence (P43629 22-444 limits assumed): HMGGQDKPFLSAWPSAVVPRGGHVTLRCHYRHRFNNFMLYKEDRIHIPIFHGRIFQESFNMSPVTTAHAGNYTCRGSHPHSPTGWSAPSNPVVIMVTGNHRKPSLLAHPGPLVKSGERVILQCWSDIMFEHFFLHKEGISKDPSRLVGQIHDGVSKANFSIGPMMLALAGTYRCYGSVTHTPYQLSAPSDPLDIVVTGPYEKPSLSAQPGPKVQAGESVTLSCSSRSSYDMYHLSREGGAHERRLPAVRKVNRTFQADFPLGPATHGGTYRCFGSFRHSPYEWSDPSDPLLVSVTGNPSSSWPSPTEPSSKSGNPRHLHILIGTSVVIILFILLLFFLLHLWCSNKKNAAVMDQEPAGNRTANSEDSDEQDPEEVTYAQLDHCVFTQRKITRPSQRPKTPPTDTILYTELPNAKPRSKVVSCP

B1: antibody 2B12 (human IgG1) (antibody, V domains shown)
VH: QIQLVQSGPELKKPGETVRISCKASGYTFTTAGMQWVQKTPGKGLKWIGWINSHSGVPKYAEDFKGRFAFSLETSASTAYLQISTLKNEDTATYFCARGGDEGVMDYWGQGTSVTVS
VL: DIVMTQSHKFMSTSLGDRVSFTCKASQDVSTAVAWYQQKPGQSPKLLIYWTSTRHTGVPDRFTGSGSGTDYTLTISSVQAEDLALYYCQQHYSTPWTFGGGTKLEIK
notes: Used as human IgG1 in the HUT78 staining studies (Parts 1-3); also called 2B12-PE
As for B1, the EC50 in test [1] is 0.0438 µg/mL; in [3] it was 0.0178 µg/mL; in test [7], 0.0566 µg/mL; in test [8], 0.0588 µg/mL; in test [10], 0.104 µg/mL; in [11], 0.0163 µg/mL. The molecule also came in with an EC50 in test [13] of 0.059 µg/mL. The “EC50 (read off the curve)” value in test [2] was ~0.04 µg/mL; in [4], ~0.09 µg/mL; in test [6], ~0.1 µg/mL; in [9] it was ~0.07 µg/mL. Also, the “EC50 of the increase of total cell-surface KIR3DL2 on HUT78 cells after 20 h at 37°C, detected with mAb2-APC (axis: MdFI 13E4-APC)” value in test [5] turned out to be 0.0789 µg/mL. Moreover, the “EC50 of the increase of total cell-surface KIR3DL2 on HUT78 cells after 24 h at 37°C, panel Total KIR3DL2 - 2B12+GaH-PE” value in [12] came to 0.103 µg/mL. Also, the “EC50 of the increase of total cell-surface KIR3DL2 on HUT78 cells after 24 h at 37°C, panel Total KIR3DL2 - mAb2-APC” value in [12] amounted to 0.0599 µg/mL. In [12], the “EC50 of the increase of total cell-surface KIR3DL2 on HUT78 cells after 48 h at 37°C, panel Total KIR3DL2 - 2B12+GaH-PE” value turned out to be 0.0454 µg/mL. Moreover, in [12], the “EC50 of the increase of total cell-surface KIR3DL2 on HUT78 cells after 48 h at 37°C, panel Total KIR3DL2 - mAb2-APC” value turned out to be 0.042 µg/mL.

B2: antibody 2B12 (parental, as generated in Example 1) (antibody, V domains shown)
VH: B1 VH
VL: B1 VL
notes: From mouse hybridoma; It was detected with goat anti-mouse antibody in the internalization assay
For the molecule B2, the binding result is reported as “no binding” in test [14], “no binding” in [15] and “binds” in [16].

One may read the EC50 as the concentration needed to bring the measured effect to its halfway point. A higher EC50 goes with lower potency in that assay. Usually EC50 (read off the curve) stands for the concentration at which the effect is half-maximal.
